{"source": "paper PMC6241121", "about": "“hnRNPA2 mediated acetylation reduces telomere length in response to mitochondrial dysfunction”", "target": "hnRNPA2 WT (human, UniProt P22626-2 1-341)", "sequence (P22626 other isoform, or with tags, fused parts or gaps)": "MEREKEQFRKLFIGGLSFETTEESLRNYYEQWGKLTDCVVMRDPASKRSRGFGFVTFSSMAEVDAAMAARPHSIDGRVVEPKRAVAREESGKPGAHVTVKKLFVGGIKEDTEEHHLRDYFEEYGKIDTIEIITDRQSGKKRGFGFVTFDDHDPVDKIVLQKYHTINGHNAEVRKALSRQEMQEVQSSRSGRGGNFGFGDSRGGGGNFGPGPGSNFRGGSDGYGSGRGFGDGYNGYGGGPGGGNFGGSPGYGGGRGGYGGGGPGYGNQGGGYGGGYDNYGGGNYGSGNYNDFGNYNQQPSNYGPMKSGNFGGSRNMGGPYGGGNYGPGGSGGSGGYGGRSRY", "test": "EMSA; not given in the material", "conditions": "protein: recombinant; tags: N-terminal 6xHis (pET28a)"}
{"binder": "TTAGGGTTAGGGTTAGGGTTAGGGTTAGGG (ssDNA)", "note": "[single-stranded telomeric DNA probe]", "values": [{"measurement": "binding result", "result": "binds"}]}
